Measurements reported in publication PMC7948503, “Optimization of a peptide ligand for the adhesion GPCR ADGRG2 provides a potent tool to explore receptor biology” (The Journal of Biological Chemistry, 2020).
Non-standard residues stand in square brackets, D forms with d. Primed or numbered codes have the meaning given here. No end group written: not given here. Phe(4-Me) = Cc1ccc(C[C@H](N)C(=O)O)cc1; FITC′ = not defined here

Tests used:
Assay in all cases: FRET or BRET; HEK293 cells transfected with Rluc-ADGRG2-ΔGPS-β WT or mutants, stimulated by increasing concentrations of FITC-conjugated VPM-p15; saturation curves fitted with GraphPad; each experiment repeated 6 times
Conditions in all cases: one partner purified
Rluc-ADGRG2-ΔGPS-β V774A = molecular target: T1, Rluc-ADGRG2-ΔGPS-β V774A (mouse, UniProt Q8CJ12-3 38-995, V774A)
T1 construct: ADGRG2 (GPR64), mouse, ADGRG2-ΔGPS-β: the entire ECD removed; source: HEK293, transfected, on cells; not shown: Rluc, N-terminal, kept
T1 sequence (Q8CJ12 other isoform, or with tags, fused parts or gaps V774A | V774A | V774A V774A): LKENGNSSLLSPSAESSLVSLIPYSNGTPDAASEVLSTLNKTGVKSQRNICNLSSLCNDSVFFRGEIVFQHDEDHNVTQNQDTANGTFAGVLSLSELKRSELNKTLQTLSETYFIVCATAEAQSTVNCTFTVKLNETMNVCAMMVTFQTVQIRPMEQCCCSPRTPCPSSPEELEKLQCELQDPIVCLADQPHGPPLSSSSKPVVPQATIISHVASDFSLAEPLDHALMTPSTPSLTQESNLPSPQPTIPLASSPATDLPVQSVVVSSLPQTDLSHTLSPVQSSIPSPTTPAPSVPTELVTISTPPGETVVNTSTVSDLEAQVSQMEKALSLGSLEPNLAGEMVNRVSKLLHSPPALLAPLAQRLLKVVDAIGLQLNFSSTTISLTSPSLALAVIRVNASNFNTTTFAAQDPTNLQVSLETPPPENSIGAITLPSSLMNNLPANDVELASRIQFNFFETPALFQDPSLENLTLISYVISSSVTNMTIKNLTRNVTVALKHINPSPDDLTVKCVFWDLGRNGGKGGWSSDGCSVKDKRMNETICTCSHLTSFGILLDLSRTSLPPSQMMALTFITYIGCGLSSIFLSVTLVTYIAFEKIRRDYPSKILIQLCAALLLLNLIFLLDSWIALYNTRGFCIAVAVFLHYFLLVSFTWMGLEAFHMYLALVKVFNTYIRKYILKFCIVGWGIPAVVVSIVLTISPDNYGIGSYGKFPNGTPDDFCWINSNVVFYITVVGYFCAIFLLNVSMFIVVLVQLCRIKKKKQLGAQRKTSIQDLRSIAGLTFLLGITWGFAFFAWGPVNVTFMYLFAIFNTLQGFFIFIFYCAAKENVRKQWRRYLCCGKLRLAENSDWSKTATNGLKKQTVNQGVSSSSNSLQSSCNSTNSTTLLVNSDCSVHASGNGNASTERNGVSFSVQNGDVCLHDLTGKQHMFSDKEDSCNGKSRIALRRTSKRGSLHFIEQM

Rluc-ADGRG2-ΔGPS-β S661A = molecular target: T2, Rluc-ADGRG2-ΔGPS-β S661A (mouse, UniProt Q8CJ12-3 38-995, S661A)
T2 construct: ADGRG2 (GPR64), mouse, ADGRG2-ΔGPS-β: the entire ECD removed; source: HEK293, transfected, on cells; not shown: Rluc, N-terminal, kept
T2 sequence (Q8CJ12 other isoform, or with tags, fused parts or gaps S661A | S661A | S661A S661A): as the sequence (Q8CJ12 other isoform, or with tags, fused parts or gaps V774A | V774A | V774A V774A) above, with S624A, A737V counted along it

Rluc-ADGRG2-ΔGPS-β L683A = molecular target: T3, Rluc-ADGRG2-ΔGPS-β L683A (mouse, UniProt Q8CJ12-3 38-995, L683A)
T3 construct: ADGRG2 (GPR64), mouse, ADGRG2-ΔGPS-β: the entire ECD removed; source: HEK293, transfected, on cells; not shown: Rluc, N-terminal, kept
T3 sequence (Q8CJ12 other isoform, or with tags, fused parts or gaps L683A | L683A | L683A L683A): as the sequence (Q8CJ12 other isoform, or with tags, fused parts or gaps V774A | V774A | V774A V774A) above, with L646A, A737V counted along it

Rluc-ADGRG2-ΔGPS-β I730A = molecular target: T4, Rluc-ADGRG2-ΔGPS-β I730A (mouse, UniProt Q8CJ12-3 38-995, I730A)
T4 construct: ADGRG2 (GPR64), mouse, ADGRG2-ΔGPS-β: the entire ECD removed; source: HEK293, transfected, on cells; not shown: Rluc, N-terminal, kept
T4 sequence (Q8CJ12 other isoform, or with tags, fused parts or gaps I730A | I730A | I730A I730A): as the sequence (Q8CJ12 other isoform, or with tags, fused parts or gaps V774A | V774A | V774A V774A) above, with I693A, A737V counted along it

Rluc-ADGRG2-ΔGPS-β S760A = molecular target: T5, Rluc-ADGRG2-ΔGPS-β S760A (mouse, UniProt Q8CJ12-3 38-995, S760A)
T5 construct: ADGRG2 (GPR64), mouse, ADGRG2-ΔGPS-β: the entire ECD removed; source: HEK293, transfected, on cells; not shown: Rluc, N-terminal, kept
T5 sequence (Q8CJ12 other isoform, or with tags, fused parts or gaps S760A | S760A | S760A S760A): as the sequence (Q8CJ12 other isoform, or with tags, fused parts or gaps V774A | V774A | V774A V774A) above, with S723A, A737V counted along it

Rluc-ADGRG2-ΔGPS-β V834A = molecular target: T6, Rluc-ADGRG2-ΔGPS-β V834A (mouse, UniProt Q8CJ12-3 38-995, V834A)
T6 construct: ADGRG2 (GPR64), mouse, ADGRG2-ΔGPS-β: the entire ECD removed; source: HEK293, transfected, on cells; not shown: Rluc, N-terminal, kept
T6 sequence (Q8CJ12 other isoform, or with tags, fused parts or gaps V834A | V834A | V834A V834A): as the sequence (Q8CJ12 other isoform, or with tags, fused parts or gaps V774A | V774A | V774A V774A) above, with A737V, V797A counted along it

Rluc-ADGRG2-ΔGPS-β I844A = molecular target: T7, Rluc-ADGRG2-ΔGPS-β I844A (mouse, UniProt Q8CJ12-3 38-995, I844A)
T7 construct: ADGRG2 (GPR64), mouse, ADGRG2-ΔGPS-β: the entire ECD removed; source: HEK293, transfected, on cells; not shown: Rluc, N-terminal, kept
T7 sequence (Q8CJ12 other isoform, or with tags, fused parts or gaps I844A | I844A | I844A I844A): as the sequence (Q8CJ12 other isoform, or with tags, fused parts or gaps V774A | V774A | V774A V774A) above, with A737V, I807A counted along it

Rluc-ADGRG2-ΔGPS-β F826A = molecular target: T8, Rluc-ADGRG2-ΔGPS-β F826A (mouse, UniProt Q8CJ12-3 38-995, F826A)
T8 construct: ADGRG2 (GPR64), mouse, ADGRG2-ΔGPS-β: the entire ECD removed; source: HEK293, transfected, on cells; not shown: Rluc, N-terminal, kept
T8 sequence (Q8CJ12 other isoform, or with tags, fused parts or gaps F826A | F826A | F826A F826A): as the sequence (Q8CJ12 other isoform, or with tags, fused parts or gaps V774A | V774A | V774A V774A) above, with A737V, F789A counted along it

Rluc-ADGRG2-ΔGPS-β T610A = molecular target: T9, Rluc-ADGRG2-ΔGPS-β T610A (mouse, UniProt Q8CJ12-3 38-995, T610A)
T9 construct: ADGRG2 (GPR64), mouse, ADGRG2-ΔGPS-β: the entire ECD removed; source: HEK293, transfected, on cells; not shown: Rluc, N-terminal, kept
T9 sequence (Q8CJ12 other isoform, or with tags, fused parts or gaps T610A | T610A | T610A T610A): as the sequence (Q8CJ12 other isoform, or with tags, fused parts or gaps V774A | V774A | V774A V774A) above, with T573A, A737V counted along it

Rluc-ADGRG2-ΔGPS-β N667A = molecular target: T10, Rluc-ADGRG2-ΔGPS-β N667A (mouse, UniProt Q8CJ12-3 38-995, N667A)
T10 construct: ADGRG2 (GPR64), mouse, ADGRG2-ΔGPS-β: the entire ECD removed; source: HEK293, transfected, on cells; not shown: Rluc, N-terminal, kept
T10 sequence (Q8CJ12 other isoform, or with tags, fused parts or gaps N667A | N667A | N667A N667A): as the sequence (Q8CJ12 other isoform, or with tags, fused parts or gaps V774A | V774A | V774A V774A) above, with N630A, A737V counted along it

Rluc-ADGRG2-ΔGPS-β Y611A = molecular target: T11, Rluc-ADGRG2-ΔGPS-β Y611A (mouse, UniProt Q8CJ12-3 38-995, Y611A)
T11 construct: ADGRG2 (GPR64), mouse, ADGRG2-ΔGPS-β: the entire ECD removed; source: HEK293, transfected, on cells; not shown: Rluc, N-terminal, kept
T11 sequence (Q8CJ12 other isoform, or with tags, fused parts or gaps Y611A | Y611A | Y611A Y611A): as the sequence (Q8CJ12 other isoform, or with tags, fused parts or gaps V774A | V774A | V774A V774A) above, with Y574A, A737V counted along it

Rluc-ADGRG2-ΔGPS-β F829A = molecular target: T12, Rluc-ADGRG2-ΔGPS-β F829A (mouse, UniProt Q8CJ12-3 38-995, F829A)
T12 construct: ADGRG2 (GPR64), mouse, ADGRG2-ΔGPS-β: the entire ECD removed; source: HEK293, transfected, on cells; not shown: Rluc, N-terminal, kept
T12 sequence (Q8CJ12 other isoform, or with tags, fused parts or gaps F829A | F829A | F829A F829A): as the sequence (Q8CJ12 other isoform, or with tags, fused parts or gaps V774A | V774A | V774A V774A) above, with A737V, F792A counted along it

Rluc-ADGRG2-ΔGPS-β N759A = molecular target: T13, Rluc-ADGRG2-ΔGPS-β N759A (mouse, UniProt Q8CJ12-3 38-995, N759A)
T13 construct: ADGRG2 (GPR64), mouse, ADGRG2-ΔGPS-β: the entire ECD removed; source: HEK293, transfected, on cells; not shown: Rluc, N-terminal, kept
T13 sequence (Q8CJ12 other isoform, or with tags, fused parts or gaps N759A | N759A | N759A N759A): as the sequence (Q8CJ12 other isoform, or with tags, fused parts or gaps V774A | V774A | V774A V774A) above, with N722A, A737V counted along it

Rluc-ADGRG2-ΔGPS-β L665A = molecular target: T14, Rluc-ADGRG2-ΔGPS-β L665A (mouse, UniProt Q8CJ12-3 38-995, L665A)
T14 construct: ADGRG2 (GPR64), mouse, ADGRG2-ΔGPS-β: the entire ECD removed; source: HEK293, transfected, on cells; not shown: Rluc, N-terminal, kept
T14 sequence (Q8CJ12 other isoform, or with tags, fused parts or gaps L665A | L665A | L665A L665A): as the sequence (Q8CJ12 other isoform, or with tags, fused parts or gaps V774A | V774A | V774A V774A) above, with L628A, A737V counted along it

Rluc-ADGRG2-ΔGPS-β C614A = molecular target: T15, Rluc-ADGRG2-ΔGPS-β C614A (mouse, UniProt Q8CJ12-3 38-995, C614A)
T15 construct: ADGRG2 (GPR64), mouse, ADGRG2-ΔGPS-β: the entire ECD removed; source: HEK293, transfected, on cells; not shown: Rluc, N-terminal, kept
T15 sequence (Q8CJ12 other isoform, or with tags, fused parts or gaps C614A | C614A | C614A C614A): as the sequence (Q8CJ12 other isoform, or with tags, fused parts or gaps V774A | V774A | V774A V774A) above, with C577A, A737V counted along it

Rluc-ADGRG2-ΔGPS-β Y765A = molecular target: T16, Rluc-ADGRG2-ΔGPS-β Y765A (mouse, UniProt Q8CJ12-3 38-995, Y765A)
T16 construct: ADGRG2 (GPR64), mouse, ADGRG2-ΔGPS-β: the entire ECD removed; source: HEK293, transfected, on cells; not shown: Rluc, N-terminal, kept
T16 sequence (Q8CJ12 other isoform, or with tags, fused parts or gaps Y765A | Y765A | Y765A Y765A): as the sequence (Q8CJ12 other isoform, or with tags, fused parts or gaps V774A | V774A | V774A V774A) above, with Y728A, A737V counted along it

Binder: VS[Phe(4-Me)]GILLDLSRTSLP-{FITC′} [FITC-conjugated VPM-p15 (ADGRG2 Stachel peptide p15 T1V/F3Phe(4-Me))]
- EC50 (Rluc-ADGRG2-ΔGPS-β V774A): 1080 nM
- EC50 (Rluc-ADGRG2-ΔGPS-β S661A): 778 nM
- EC50 (Rluc-ADGRG2-ΔGPS-β L683A): 1160 nM
- EC50 (Rluc-ADGRG2-ΔGPS-β I730A): 1200 nM
- EC50 (Rluc-ADGRG2-ΔGPS-β S760A): 1350 nM
- EC50 (Rluc-ADGRG2-ΔGPS-β V834A): 1120 nM
- EC50 (Rluc-ADGRG2-ΔGPS-β I844A): 1540 nM
- EC50 (Rluc-ADGRG2-ΔGPS-β F826A): 1170 nM
- EC50 (Rluc-ADGRG2-ΔGPS-β T610A): 1120 nM
- EC50 (Rluc-ADGRG2-ΔGPS-β N667A): 913 nM
- EC50 (Rluc-ADGRG2-ΔGPS-β Y611A): 712 nM
- EC50 (Rluc-ADGRG2-ΔGPS-β F829A): 323 nM
- EC50 (Rluc-ADGRG2-ΔGPS-β N759A): 1550 nM
- EC50 (Rluc-ADGRG2-ΔGPS-β L665A): 796 nM
- EC50 (Rluc-ADGRG2-ΔGPS-β C614A): 1290 nM
- EC50 (Rluc-ADGRG2-ΔGPS-β Y765A): 905 nM
